*1 amine or outer side, *2 acyl side, *3 side chain or, on linkers, in order; H or OH if unused. Bridges are numbered along the chain shown (N, C = ends). Where no end group is shown, it is not given here. [ ]: non-standard residue; d: D form. TTDS = 1,13-diamino-4,7,10-trioxatridecan-succinamic acid, O=C(CCC(=O)[*:2])NCCCOCCOCCOCCCN[*:1]; Oic = O=C(O)[C@@H]1C[C@@H]2CCCC[C@@H]2N1; Trx = NC[C@H]1CC[C@H](C(=O)O)CC1; tBuAla = CC(C)(C)C[C@H](N)C(=O)O; PEG4 = NCCOCCOCCOCCOCCC(=O)O; Pen = CC(C)(S)[C@H](N)C(=O)O; Orn = NCCC[C@H](N)C(=O)O; Dab = NCC[C@H](N)C(=O)O; Dap = NC[C@H](N)C(=O)O; Ahx = NCCCCCC(=O)O; Sar = CNCC(=O)O
T1: recombinant human MASP1 (amino acids 297-699, C-terminal His Tag) (human, UniProt P48740 297-699)
T1 sequence: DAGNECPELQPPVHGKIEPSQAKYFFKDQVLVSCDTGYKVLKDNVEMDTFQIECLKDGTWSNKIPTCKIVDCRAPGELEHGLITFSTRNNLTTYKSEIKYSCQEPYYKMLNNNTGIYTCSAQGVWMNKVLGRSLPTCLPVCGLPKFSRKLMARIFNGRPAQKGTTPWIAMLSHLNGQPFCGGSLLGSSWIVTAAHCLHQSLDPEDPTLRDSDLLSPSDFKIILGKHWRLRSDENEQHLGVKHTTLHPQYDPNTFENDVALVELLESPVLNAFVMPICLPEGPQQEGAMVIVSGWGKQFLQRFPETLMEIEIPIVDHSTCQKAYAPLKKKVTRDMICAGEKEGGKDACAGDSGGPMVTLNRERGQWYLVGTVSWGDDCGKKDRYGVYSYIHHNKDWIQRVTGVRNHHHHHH


Columns and labels:
[1] = biological target: T1, recombinant human MASP1 (amino acids …); experiment: cell-based or functional assay
[2] = biological target: recombinant human MASP2 (amino acids 297-686, C-terminal His Tag) (human, UniProt O00187 297-686); experiment: cell-based or functional assay
Chain of recombinant human MASP2 (amino acids 297-686, C-terminal His Tag) (O00187 other isoform, or with tags, fused parts or gaps limits assumed): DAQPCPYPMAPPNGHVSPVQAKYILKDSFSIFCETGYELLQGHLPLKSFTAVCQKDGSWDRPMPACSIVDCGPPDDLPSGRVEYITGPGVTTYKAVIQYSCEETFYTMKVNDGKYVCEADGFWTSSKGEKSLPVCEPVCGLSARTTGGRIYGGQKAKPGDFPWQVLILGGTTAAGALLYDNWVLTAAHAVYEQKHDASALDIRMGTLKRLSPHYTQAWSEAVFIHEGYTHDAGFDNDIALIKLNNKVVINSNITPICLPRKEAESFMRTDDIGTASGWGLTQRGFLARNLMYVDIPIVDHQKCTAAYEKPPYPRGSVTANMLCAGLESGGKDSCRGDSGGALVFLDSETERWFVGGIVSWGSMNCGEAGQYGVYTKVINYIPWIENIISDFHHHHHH

Binder	human MASP1 IC50 [1]	human MASP2 IC50 [2]
cyclo([Dap][Dab]ICSRS[tBuAla]PPI[Pen]I) (disulfide 4-12; also: TFA salt) [Example 73: (Dap)**-(Dab)-IC+SRS-((tBu)A)-PPI-(Pen)+-I**]	42 nM	430 nM
cyclo([dA]GGICSRSLPPICIPD) (disulfide 5-13; also: TFA salt) [Example 19: a**GGIC+SRSLPPIC+IPD**]	49 nM	210 nM
[Ahx]AICSRSLP[Oic]I[Pen]IPE-NH2 (disulfide 4-12; lactam N-15; also: TFA salt) [Example 74: (Ahx)**-AIC+SRSLP-(Oic)-I-(Pen)+-IPE++-NH2]	14 nM	160 nM
[Ahx][Sar]AICSRSLP[Oic]I[Pen]IPE-NH2 (disulfide 5-13; lactam N-16; also: TFA salt) [Example 77: (Ahx)**-((N-Me)G)-AIC+SRSLP-(Oic)-I-(Pen)+-IPE++-NH2]	11 nM	210 nM
cyclo([Orn]GICSRS[tBuAla]PPI[Pen]IP) (disulfide 4-12; also: TFA salt) [Example 96: (Orn)**-GIC+SRS-((tBu)A)-PPI-(Pen)+-IP**]	23 nM	400 nM
[Dap]GGICSRSLPPICIPD (lactam 1-C; disulfide 5-13; also: TFA salt) [Example 20: (Dap)++-GGIC+SRSLPPIC+IPD**]	55 nM	110 nM
[Ahx]GAICSRSLP[Oic]I[Pen]IPE-NH2 (disulfide 5-13; lactam N-16; also: TFA salt) [Example 82: (Ahx)**-GAIC+SRSLP-(Oic)-I-(Pen)+-IPE++-NH2]	69 nM	700 nM
[Ahx][dA]ICSRSLP[Oic]I[Pen]IPE-NH2 (disulfide 4-12; lactam N-15; also: HCl salt) [Example 79: (Ahx)**-aIC+SRSLP-(Oic)-I-(Pen)+-IPE++-NH2 (HCl Salt)]	22 nM	45 nM
cyclo(ICSRS[tBuAla]PPI[Pen]IP) (disulfide 2-10; also: HCl salt) [Example 88: I**C+SRS-((tBu)A)-PPI-(Pen)+-IP** (HCl Salt)]	1000 nM	1000 nM
[Dap][Dap]ICSRSLP[Oic]I[Pen]IP (lactam 1-C; disulfide 4-12; also: TFA salt) [Example 86: (Dap)++-(Dap)-IC+SRSLP-(Oic)-I-(Pen)+-IP**]	27 nM	1000 nM
cyclo([Orn]GICSRS[tBuAla]PPI[Pen]I) (disulfide 4-12; also: TFA salt) [Example 65: (Orn)**-GIC+SRS-((tBu)A)-PPI-(Pen)+-I**]	49 nM	540 nM
cyclo([Ahx]ICSRSLP[Oic]ICI) (disulfide 3-11; also: TFA salt) [Example 95: (Ahx)**-IC+SRSLP-(Oic)-IC+I**]	100 nM	110 nM
KGICSRSLPPICIPD (lactam 1-C; disulfide 4-12; also: TFA salt) [Example 22: K++GIC+SRSLPPIC+IPD**]	190 nM	91 nM
cyclo(AGGICSRSLPPICIPD) (disulfide 5-13; also: TFA salt) [Example 18: A**GGIC+SRSLPPIC+IPD**]	50 nM	15 nM
[Ahx]GICSRSLP[Oic]I[Pen]IPE-NH2 (disulfide 4-12; lactam N-15; also: TFA salt) [Example 83: (Ahx)**-GIC+SRSLP-(Oic)-I-(Pen)+-IPE++-NH2]	18 nM	91 nM
cyclo([Ahx]GICSRSLPPICIP[dD]) (disulfide 4-12; also: TFA salt) [Example 16: (Ahx)**-GIC+SRSLPPIC+IPd**]	150 nM	370 nM
cyclo([PEG4]GICSRSLPPICIPD) (disulfide 4-12; also: TFA salt) [Example 14: (PEG3(16 atoms))**-GIC+SRSLPPIC+IPD**]	170 nM	240 nM
[Ahx]G[dA]ICSRSLP[Oic]I[Pen]IPE-NH2 (disulfide 5-13; lactam N-16; also: TFA salt) [Example 84: (Ahx)**-GaIC+SRSLP-(Oic)-I-(Pen)+-IPE++-NH2]	15 nM	87 nM
cyclo([Ahx]GICSRSLPPICIPD) (disulfide 4-12; also: HCl salt) [Example 94: (Ahx)**-GIC+SRSLPPIC+IPD** (HCl Salt)]	120 nM	130 nM

Binder	human MASP1 IC50 [1]	human MASP2 IC50 [2]
cyclo([Dap]ICSRSLP[Oic]I[Pen]IP) (disulfide 3-11; also: TFA salt) [Example 87: (Dap)**-IC+SRSLP-(Oic)-I-(Pen)+-IP**]	46 nM	700 nM
cyclo([Dap][Dap]ICSRS[tBuAla]PPI[Pen]IP) (disulfide 4-12; also: TFA salt) [Example 97: (Dap)**-(Dap)-IC+SRS-((tBu)A)-PPI-(Pen)+-IP**]	5 nM	760 nM
[Orn]AICSRS[tBuAla]PPI[Pen]IPD-NH2 (lactam 1-15; disulfide 4-12; also: TFA salt) [Example 61: (Orn)++-AIC+SRS-((tBu)A)-PPI-(Pen)+-IPD++-NH2]	3.1 nM	310 nM
[dK]ICSRS[tBuAla]PPI[Pen]I (lactam 1-C; disulfide 3-11; also: HCl salt) [Example 78: k++-IC+SRS-((tBu)A)-PPI-(Pen)+-I** (HCl Salt)]	10 nM	7 nM
cyclo(GGICSRSLPPICIPD) (disulfide 4-12; also: TFA salt) [Example 15: G**GIC+SRSLPPIC+IPD**]	120 nM	300 nM
[Orn]ICSRS[tBuAla]PPI[Pen]I (lactam 1-C; disulfide 3-11; also: TFA salt) [Example 66: (Orn)++-IC+SRS-((tBu)A)-PPI-(Pen)+-I**]	8.1 nM	22 nM
KICSRS[tBuAla]PPI[Pen]I (lactam 1-C; disulfide 3-11; also: TFA salt) [Example 67: K++-IC+SRS-((tBu)A)-PPI-(Pen)+-I**]	3.25 nM	150 nM
cyclo([Dap][Dap]GICSRSLPPICIPD) (disulfide 5-13; also: TFA salt) [Example 23: (Dap)**-(Dap)-GIC+SRSLPPIC+IPD**]	180 nM	20 nM
[3‑azido‑L‑alanine]GAICSRS[tBuAla]PPICIP[L‑propargylglycine]-NH2 (triazole 1-16; disulfide 5-13; also: TFA salt)	18 nM	230 nM
EGICSRSLP[Oic]I[Pen]IPK-NH2 (lactam 1-15; disulfide 4-12; also: TFA salt) [Example 90: E++GIC+SRSLP-(Oic)-I-(Pen)+-IPK++-NH2]	9.8 nM	110 nM
cyclo(GSGICSRSLPPICIPDS) (disulfide 5-13; not fully specified; printed as G**SGIC+SRSLPPIC+IPDS**; also: TFA salt) [Example 21: G**SGIC+SRSLPPIC+IPDS**]	170 nM	120 nM
EGICSRSLP[Oic]I[Pen]IPDK-NH2 (lactam 1-16; disulfide 4-12; also: TFA salt) [Example 91: E++GIC+SRSLP-(Oic)-I-(Pen)+-IPDK++-NH2]	29 nM	71 nM
G[Trx]GICSRS[tBuAla]PPI[Pen]IPD-NH2 (disulfide 5-13; lactam N-16; also: TFA salt) [Example 62: G**-(TXA)-GIC+SRS-((tBu)A)-PPI-(Pen)+-IPD++-NH2]	22 nM	540 nM
[dK]ICSRS[tBuAla]PPI[Pen]I (lactam 1-C; disulfide 3-11; also: TFA salt) [Example 80: k++-IC+SRS-((tBu)A)-PPI-(Pen)+-I**]	11 nM	6.8 nM
cyclo([TTDS]AICSRS[tBuAla]PPI[Pen]IPD) (disulfide 4-12; also: TFA salt) [Example 63: (TTDS)**-AIC+SRS-((tBu)A)-PPI-(Pen)+-IPD**]	28 nM	170 nM
cyclo(AGGICSRSLPPICIP[dD]) (disulfide 5-13; also: TFA salt) [Example 17: A**GGIC+SRSLPPIC+IPd**]	26 nM	88 nM
[Orn]ICSRS[tBuAla]PPI[Pen]IP (lactam 1-C; disulfide 3-11; also: TFA salt) [Example 71: (Orn)++-IC+SRS-((tBu)A)-PPI-(Pen)+-IP**]	21 nM	24 nM
[Dap]ICSRSLP[Oic]I[Pen]IP (lactam 1-C; disulfide 3-11; also: TFA salt) [Example 85: (Dap)++-IC+SRSLP-(Oic)-I-(Pen)+-IP**]	1000 nM	1000 nM

From patent publication US20240010684A1 (Bayer, published 2024)
